Data from US12630600B2 (MEDIMMUNE LIMITED, priority 2022, dated 2026).
“And” between values parts separate entries of the source, which are not always exact repeats. Equal values may be shown once. Read-outs that look alike come from different tables or passages of the source. One block for each molecule: values may come before it. Starred links: 1 amine or outer side, 2 acyl side, 3 side chain; linkers in the order of their positions; H or OH if unused. Non-standard residues stand in square brackets, D forms with d. Residues, ends and D or L forms follow the SMILES beside them. Groups on a side chain read outwards from the residue. Primed or numbered codes have the meaning given here. No end group written: not given here. *: point of attachment. β‑dimethylArg = (S)-2-amino-5-guanidino-3,3-dimethylpentanoic acid, CC(C)(CCNC(=N)N)[C@H](N[*:1])C(=O)[*:2]; C20 diacid = O=C(O)CCCCCCCCCCCCCCCCCCC(=O)*; C18 diacid = O=C(O)CCCCCCCCCCCCCCCCC(=O)*; Dip = N[C@H](C(=O)O)C(c1ccccc1)c1ccccc1; γGlu = O=C(O)[C@H](CCC(=O)[*:2])N[*:1]; Palmitoyl = CCCCCCCCCCCCCCCC(=O)*; αMeF = C[C@](N)(Cc1ccccc1)C(=O)O; Myristoyl = CCCCCCCCCCCCCC(=O)*; (PEG)2 = polyethylene glycol 2; PEG2′ = polyethylene glycol 2; AEEA = NCCOCCOCC(=O)O; Aib = CC(C)(N)C(=O)O

Key:
[1] = target: T1, Semaglutide (synthetic construct)
T1 sequence (peptide, Aib at 2; X20=Lys[O2Oc-O2Oc-γE-C18diacid]; C-terminal acid): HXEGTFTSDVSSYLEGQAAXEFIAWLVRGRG

GLP-1R knockout mice = experiment: Glucose change in GLP-1R knockout mice; format: in vivo, mouse; conditions: GLP-1R KO mice, s.c., no somatostatin pretreatment
Experimental: (§1) They acclimated for a minimum of ˜1-2 weeks, and mice were sorted into groups (n=4-8/group) based on body weight. On day of study, mice were fasted briefly for 2 hrs prior to study start. In some studies, mice were pre-treated with octreotide (BaChem, 10 mg/kg) at 30 minutes prior to peptide injection. Glucose was measured via glucometer at various timepoints including −30 min (prior to octreotide when used in studies), 0 min (before peptide dose), 30, 60, 120, 180, 240, and 360 minutes. Since these studies are acute in nature, mice were re-used for multiple studies (no more than 3) and always allowed at least a minimum wash-out period of 1 week.

wildtype (WT) mice = experiment: Glucose change in wildtype mice; format: in vivo, mouse; conditions: s.c., no somatostatin pretreatment
Experimental: as §1, with “[…] and wildtype (WT) mice at 8-14 weeks of age were singly housed on standard chow diet (Envigo, 2918) and automatic water. They” for “They”

[2] = target: T1, Semaglutide (synthetic construct); remark: listed apart in the source
Male C57Bl/6 mice = experiment: Mouse acute food intake study; format: in vivo; conditions: s.c., food intake at 24 h vs vehicle
Experimental: Male C57Bl/6 mice obtained from Jackson Laboratories or Charles River at 8-9 weeks of age and were housed one per cage in BioDaq (Research Diets) cages. Mice were placed on Alpha Dri bedding, standard chow diet (Envigo, 2018) and given water pouches. Mice were allowed to acclimate for 1-2 weeks. Body weight was measured to ensure appropriate acclimation. After acclimation, mice were sham dosed a minimum of 2 times prior to initiation of food intake study. On study day, mice were placed in clean cage bottoms, weighed, and fasted for 6-8 hours. Mice were sorted into groups based on average 24-hour food intake data and body weight. 1-2 hours prior to lights out, mice were dosed subcutaneously with one vehicle or test peptide dissolved in an appropriate vehicle at 5 mL/kg. Mice were left undisturbed and allowed access to food and water for 48 hours. Automated food intake was monitored in the BioDaq system was monitored during this time. Discrete food intake data was exported into MS Excel from which cumulative food intake data was generated and analyzed.

[3] = target: GLP-1R of the mouse (present in wildtype mice, absent in GLP-1R knockout mice) (mouse, UniProt O35659); experiment: cell-based or functional assay
human glucagon receptor [4] = target: T2, human glucagon receptor (human, UniProt P47871); experiment: cell-based or functional assay
human GLP-1 receptor [5] = target: T3, human GLP-1 receptor (human, UniProt P43220); experiment: cell-based or functional assay
human glucagon receptor [6] = target: T2, human glucagon receptor; experiment: cell-based or functional assay; remark: listed apart in the source
human GLP-1 receptor [7] = target: T3, human GLP-1 receptor; experiment: cell-based or functional assay; remark: listed apart in the source

Molecule: CC[C@H](C)[C@H](NC(=O)[C@H](Cc1c[nH]c2ccccc12)NC(=O)[C@H](CCC(N)=O)NC(=O)[C@@H](NC(=O)[C@H](Cc1ccccc1)NC(=O)[C@H](CC(=O)O)NC(=O)[C@H](CCCCNC(=O)COCCOCCNC(=O)COCCOCCNC(=O)CC[C@H](NC(=O)CC[C@H](NC(=O)CCCCCCCCCCCCCCCCCCC(=O)O)C(=O)O)C(=O)O)NC(=O)[C@H](C)NC(=O)[C@H](C)NC(=O)[C@H](CCCNC(=N)N)NC(=O)[C@H](CO)NC(=O)[C@H](CC(=O)O)NC(=O)[C@H](CC(C)C)NC(=O)[C@H](Cc1ccc(O)cc1)NC(=O)[C@H](CCCCN)NC(=O)[C@H](CO)NC(=O)[C@@H](NC(=O)[C@H](CC(=O)O)NC(=O)[C@H](CO)NC(=O)[C@@H](NC(=O)[C@](C)(Cc1ccccc1)NC(=O)[C@H](CO)NC(=O)CNC(=O)[C@H](Cc1c[nH]cn1)NC(=O)C(C)(C)NC(=O)[C@@H](N)Cc1c[nH]cn1)[C@@H](C)O)C(C)C)C(C)C)C(=O)N[C@@H](C)C(=O)N[C@@H](CC(N)=O)C(=O)N[C@H](C(N)=O)[C@@H](C)O [Peptide 289] (H-H[Aib]HGS[αMeF]TSDVSKYLDSRAAK([AEEA-AEEA-γGlu-γGlu-C20 diacid])DFVQWIANT-NH2; N-terminus assumed)
GLP-1R KO % glucose change 120 min (GLP-1R knockout mice; 10 nmol/kg): 8.9% | GLP-1R KO % glucose change 120 min (GLP-1R knockout mice; 30 nmol/kg): 7.7% | WT % glucose change 120 min (wildtype (WT) mice; 10 nmol/kg): −8.5%

Molecule: CC(C)C[C@H](NC(=O)[C@H](Cc1c[nH]c2ccccc12)NC(=O)[C@H](CCC(N)=O)NC(=O)[C@@H](NC(=O)[C@H](Cc1ccccc1)NC(=O)[C@H](CC(=O)O)NC(=O)[C@H](CCCNC(=N)N)NC(=O)[C@H](C)NC(=O)[C@H](CCCNC(=N)N)NC(=O)[C@H](CCCCNC(=O)COCCOCCNC(=O)COCCOCCNC(=O)CC[C@H](NC(=O)CCCCCCCCCCCCCCCCC(=O)O)C(=O)O)NC(=O)[C@@H](NC(=O)[C@H](CC(=O)O)NC(=O)[C@H](CC(C)C)NC(=O)[C@](C)(Cc1ccccc1)NC(=O)[C@H](CCCCN)NC(=O)[C@H](CO)NC(=O)[C@@H](NC(=O)[C@H](CC(=O)O)NC(=O)[C@H](CO)NC(=O)[C@@H](NC(=O)[C@H](Cc1ccccc1)NC(=O)[C@@H](NC(=O)CNC(=O)[C@H](CCC(N)=O)NC(=O)C(C)(C)NC(=O)[C@@H](N)Cc1c[nH]cn1)[C@@H](C)O)[C@@H](C)O)C(C)C)[C@@H](C)O)C(C)C)C(=O)N[C@@H](CC(C)C)C(=O)N[C@@H](CCC(=O)O)C(=O)NC(C)(C)C(=O)NCC(=O)O [Peptide 188, H-Aib-Q-G-T-F-T-S-D-V-S-K-αMePhe-L-D-T-K-R-A-R-D-F-V-Q-W-L-L-E-Aib-G-acid]
GLP-1R KO % glucose change −60 min (GLP-1R knockout mice; 10 nmol/kg): 64%

Molecule: H-Aib-Q-G-T-F-T-S-D-V-S-K-αMePhe-L-D-T-K-R-A-R-D-F-V-Q-W-L-L-E-Aib-G-acid [Peptide 195]
GLP-1R KO % glucose change −60 min (GLP-1R knockout mice; 10 nmol/kg): 35.3% | GLP-1R KO % glucose change −60 min (GLP-1R knockout mice; 30 nmol/kg): 48.0% | 24 hr % Vehicle Food Intake (Male C57Bl/6 mice; dose 1 nmol/kg): 102.1% | 24 hr % Vehicle Food Intake (Male C57Bl/6 mice; dose 3 nmol/kg): 84.0% | 24 hr % Vehicle Food Intake (Male C57Bl/6 mice; dose 10 nmol/kg): 58.2% and 49.9% | WT % glucose change 60 min (wildtype (WT) mice; 10 nmol/kg): 1.4% | WT % glucose change 60 min (wildtype (WT) mice; 30 nmol/kg): −17.0%

Molecule: HSQGS[αMeF]TSDVSK[Dip]LDSK([PEG2′-PEG2′-γGlu-γGlu-Myristoyl])AAQD[αMeF]VE[Aib]IINT-NH2 [Peptide 63]
WT % glucose change 120 min [3]: -26.4 % glucose change at 120 min, WT mice, 10 nmol/kg

Molecule: H[Aib]QGS[αMeF]TSDVSKILDSK([(PEG)2-(PEG)2-γGlu-γGlu-Myristoyl])AAQD[αMeF]VQ[Aib]IINT-NH2 [Peptide 126]
WT % glucose change 120 min [3]: -46.2 % glucose change at 120 min, WT mice, 30 nmol/kg

Molecule: H[Aib]HGS[αMeF]TSDVSK[αMeF]LDSRAAQD[αMeF]VK([AEEA-AEEA-γGlu-C18 diacid])SIANT-NH2 (not fully specified) [Peptide 379]
hGluc-R EC50 (pM) (human glucagon receptor [4]): 85.7 pM | hGLP-1R EC50 (pM) (human GLP-1 receptor [5]): 71.8 pM

B1: Peptide 357 (peptide)
peptide: HXHGSXTSDVSKXLDSQAAQDFVXWIANT
modifications: Aib at 2; αMePhe at 6, 13; Lys 24 acylated K(γE-γE-(PEG)2-γE-γE-C20diacid)24; C-terminal amide
hGluc-R EC50 (pM) (human glucagon receptor [4]): 550 pM | hGLP-1R EC50 (pM) (human GLP-1 receptor [5]): 917 pM

Molecule: H[Aib]HGS[αMeF]TSDVSK[αMeF]LDSRAAKD[αMeF]VQWIANT-NH2 (not fully specified (residue 20); also: X13: αMePhe or Y (table)) [Peptide 289]
WT % glucose change 120 min [3]: -16.1 % glucose change at 120 min, WT mice, 30 nmol/kg

Second part, the molecule after the results:

% intact peptide over time, 24 hr (% intact peptide at 24 hr) [1]: 48
Molecule: recombinant Neprilysin (from UniProt P08473) (enzyme)

% intact peptide over time (min), 30 (% intact peptide at 30 min) [2]: 14
Molecule: porcine pancreatic pepsin (from UniProt P00791) (enzyme)

hGluc-R EC50 (pM) (human glucagon receptor [4]): 1240 pM | hGLP-1R EC50 (pM) (human GLP-1 receptor [5]): 797 pM
Molecule: H[Aib]HGS[αMeF]TSDVSK[αMeF]LDSQAAQD[αMeF]VK([AEEA-AEEA-γGlu-γGlu-C20 diacid])[Aib]IANT-NH2 [Peptide 384]

hGluc-R EC50 (pM) (human glucagon receptor [6]): 6920 pM | hGLP-1R EC50 (pM) (human GLP-1 receptor [7]): 312 pM
B2: Peptide 392 of Table 9 (peptide)
peptide: H[Aib]HGS[αMeF]TSDK([AEEA-AEEA-γGlu-C18 diacid])SK[αMeF]LDSRAAQD[αMeF]VQ[Aib]IANT-NH2
modifications: N-terminus assumed
SMILES: CC[C@H](C)[C@H](NC(=O)C(C)(C)NC(=O)[C@H](CCC(N)=O)NC(=O)[C@@H](NC(=O)[C@](C)(Cc1ccccc1)NC(=O)[C@H](CC(=O)O)NC(=O)[C@H](CCC(N)=O)NC(=O)[C@H](C)NC(=O)[C@H](C)NC(=O)[C@H](CCCNC(=N)N)NC(=O)[C@H](CO)NC(=O)[C@H](CC(=O)O)NC(=O)[C@H](CC(C)C)NC(=O)[C@](C)(Cc1ccccc1)NC(=O)[C@H](CCCCN)NC(=O)[C@H](CO)NC(=O)[C@H](CCCCNC(=O)COCCOCCNC(=O)COCCOCCNC(=O)CC[C@H](NC(=O)CCCCCCCCCCCCCCCCC(=O)O)C(=O)O)NC(=O)[C@H](CC(=O)O)NC(=O)[C@H](CO)NC(=O)[C@@H](NC(=O)[C@](C)(Cc1ccccc1)NC(=O)[C@H](CO)NC(=O)CNC(=O)[C@H](Cc1c[nH]cn1)NC(=O)C(C)(C)NC(=O)[C@@H](N)Cc1c[nH]cn1)[C@@H](C)O)C(C)C)C(=O)N[C@@H](C)C(=O)N[C@@H](CC(N)=O)C(=O)N[C@H](C(N)=O)[C@@H](C)O

hGluc-R EC50 (pM) (human glucagon receptor [4]): 329 pM | hGLP-1R EC50 (pM) (human GLP-1 receptor [5]): 56 pM
B3: Peptide 382 (peptide)
peptide: H[Aib]HGS[αMeF]TSDVSK[αMeF]LDSR[Aib]AQDFVK([AEEA-AEEA-γGlu-γGlu-C18 diacid])SIANTGG-NH2
modifications: N-terminus assumed
SMILES: CC[C@H](C)[C@H](NC(=O)[C@H](CO)NC(=O)[C@H](CCCCNC(=O)COCCOCCNC(=O)COCCOCCNC(=O)CC[C@H](NC(=O)CC[C@H](NC(=O)CCCCCCCCCCCCCCCCC(=O)O)C(=O)O)C(=O)O)NC(=O)[C@@H](NC(=O)[C@H](Cc1ccccc1)NC(=O)[C@H](CC(=O)O)NC(=O)[C@H](CCC(N)=O)NC(=O)[C@H](C)NC(=O)C(C)(C)NC(=O)[C@H](CCCNC(=N)N)NC(=O)[C@H](CO)NC(=O)[C@H](CC(=O)O)NC(=O)[C@H](CC(C)C)NC(=O)[C@](C)(Cc1ccccc1)NC(=O)[C@H](CCCCN)NC(=O)[C@H](CO)NC(=O)[C@@H](NC(=O)[C@H](CC(=O)O)NC(=O)[C@H](CO)NC(=O)[C@@H](NC(=O)[C@](C)(Cc1ccccc1)NC(=O)[C@H](CO)NC(=O)CNC(=O)[C@H](Cc1c[nH]cn1)NC(=O)C(C)(C)NC(=O)[C@@H](N)Cc1c[nH]cn1)[C@@H](C)O)C(C)C)C(C)C)C(=O)N[C@@H](C)C(=O)N[C@@H](CC(N)=O)C(=O)N[C@H](C(=O)NCC(=O)NCC(N)=O)[C@@H](C)O

WT % glucose change 120 min [3]: -45 % glucose change at 120 min, WT mice, 30 nmol/kg
Molecule: HSQGS[αMeF]TSDVSKK([(PEG)2-(PEG)2-γGlu-γGlu-Palmitoyl])LDS[β‑dimethylArg]AAQD[αMeF]VE[Aib]LANT-NH2 [Peptide 399]

hGLP-1R EC50 (pM) (human GLP-1 receptor [7]): 0.458 pM
Molecule: H[Aib]HGS[αMeF]TSDK([AEEA-AEEA-γGlu-C18 diacid])SK[αMeF]LDSRAAQD[αMeF]VQ[Aib]IANT (not fully specified (C-terminus)) [Peptide 393 of Table 9]
